Consider one molecule from patent US20220332804A1 (CSL INNOVATION, published 2022).

Holding throughout (assay): SPR, mAb captured, C2 mutant analyte;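 also: Anti-C2 mAbs captured on goat anti-human IgG Biacore CM5 chips, alanine or serine C2 surface mutants flowed over at 37 °C, double-referenced sensorgrams fitted to a 1:1 binding model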
One test addresses T1, human C2 N268A (human, UniProt P06681 21-752).
T1 sequence: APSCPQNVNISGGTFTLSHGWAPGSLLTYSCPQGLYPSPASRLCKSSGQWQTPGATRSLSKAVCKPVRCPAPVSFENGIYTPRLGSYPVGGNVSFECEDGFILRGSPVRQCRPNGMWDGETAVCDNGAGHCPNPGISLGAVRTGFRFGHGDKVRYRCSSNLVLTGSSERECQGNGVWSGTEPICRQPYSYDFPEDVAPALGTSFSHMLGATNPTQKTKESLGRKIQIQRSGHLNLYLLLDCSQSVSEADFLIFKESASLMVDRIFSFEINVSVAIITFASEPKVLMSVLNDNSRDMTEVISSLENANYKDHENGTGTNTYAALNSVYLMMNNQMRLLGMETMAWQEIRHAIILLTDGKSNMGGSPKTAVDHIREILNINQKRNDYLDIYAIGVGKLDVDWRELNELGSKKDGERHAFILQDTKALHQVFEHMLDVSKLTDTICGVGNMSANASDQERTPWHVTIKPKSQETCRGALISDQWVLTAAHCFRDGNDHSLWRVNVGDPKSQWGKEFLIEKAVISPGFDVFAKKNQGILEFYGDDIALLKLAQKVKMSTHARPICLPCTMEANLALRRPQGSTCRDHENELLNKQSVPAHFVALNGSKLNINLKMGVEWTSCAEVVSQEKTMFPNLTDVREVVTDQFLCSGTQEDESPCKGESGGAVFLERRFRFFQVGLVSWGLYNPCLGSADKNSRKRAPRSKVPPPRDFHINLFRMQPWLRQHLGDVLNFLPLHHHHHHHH

Another test concerns the target T2, human C2 D269A (human, UniProt P06681 21-752).
T2 sequence: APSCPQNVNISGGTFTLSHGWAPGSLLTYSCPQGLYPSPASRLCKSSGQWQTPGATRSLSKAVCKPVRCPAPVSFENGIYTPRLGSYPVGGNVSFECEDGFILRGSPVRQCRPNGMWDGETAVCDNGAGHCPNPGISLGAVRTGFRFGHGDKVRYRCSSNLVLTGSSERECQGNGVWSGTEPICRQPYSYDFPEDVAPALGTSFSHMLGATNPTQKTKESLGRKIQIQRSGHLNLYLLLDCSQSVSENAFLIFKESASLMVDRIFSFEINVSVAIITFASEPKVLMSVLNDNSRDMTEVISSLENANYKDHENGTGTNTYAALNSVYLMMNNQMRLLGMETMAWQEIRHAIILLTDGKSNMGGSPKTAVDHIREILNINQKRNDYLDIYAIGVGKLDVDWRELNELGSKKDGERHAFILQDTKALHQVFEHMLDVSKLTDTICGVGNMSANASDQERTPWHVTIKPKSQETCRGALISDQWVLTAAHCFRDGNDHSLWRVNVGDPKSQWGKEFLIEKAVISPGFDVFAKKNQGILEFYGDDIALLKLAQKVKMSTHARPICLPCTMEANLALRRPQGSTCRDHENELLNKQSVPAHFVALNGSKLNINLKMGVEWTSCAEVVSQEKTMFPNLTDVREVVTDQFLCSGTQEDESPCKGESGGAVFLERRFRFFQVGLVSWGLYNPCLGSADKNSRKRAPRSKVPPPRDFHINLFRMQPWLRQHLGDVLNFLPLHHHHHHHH

For a further test, the target named is T3, human C2 K329A (human, UniProt P06681 21-752).
T3 sequence: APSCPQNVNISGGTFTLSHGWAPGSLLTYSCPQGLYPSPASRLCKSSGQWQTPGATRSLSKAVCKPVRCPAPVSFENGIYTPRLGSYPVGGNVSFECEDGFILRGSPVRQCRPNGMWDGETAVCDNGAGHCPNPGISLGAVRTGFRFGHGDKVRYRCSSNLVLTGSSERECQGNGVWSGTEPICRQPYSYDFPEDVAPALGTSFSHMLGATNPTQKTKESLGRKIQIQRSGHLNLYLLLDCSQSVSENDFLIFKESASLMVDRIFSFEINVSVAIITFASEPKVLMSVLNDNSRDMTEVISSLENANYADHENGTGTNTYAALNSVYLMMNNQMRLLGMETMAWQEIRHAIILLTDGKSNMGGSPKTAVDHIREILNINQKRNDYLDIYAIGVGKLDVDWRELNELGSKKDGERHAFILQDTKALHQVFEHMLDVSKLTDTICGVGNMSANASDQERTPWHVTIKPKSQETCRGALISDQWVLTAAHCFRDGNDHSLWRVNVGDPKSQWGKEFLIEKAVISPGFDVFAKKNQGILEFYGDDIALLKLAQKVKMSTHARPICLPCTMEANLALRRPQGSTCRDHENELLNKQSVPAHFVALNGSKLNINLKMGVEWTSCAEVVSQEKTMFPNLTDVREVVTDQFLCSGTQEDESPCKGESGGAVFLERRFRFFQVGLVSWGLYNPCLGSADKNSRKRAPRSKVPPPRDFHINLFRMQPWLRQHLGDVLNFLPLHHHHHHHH

The target of another test is T4, human C2 N467A (human, UniProt P06681 21-752).
T4 sequence: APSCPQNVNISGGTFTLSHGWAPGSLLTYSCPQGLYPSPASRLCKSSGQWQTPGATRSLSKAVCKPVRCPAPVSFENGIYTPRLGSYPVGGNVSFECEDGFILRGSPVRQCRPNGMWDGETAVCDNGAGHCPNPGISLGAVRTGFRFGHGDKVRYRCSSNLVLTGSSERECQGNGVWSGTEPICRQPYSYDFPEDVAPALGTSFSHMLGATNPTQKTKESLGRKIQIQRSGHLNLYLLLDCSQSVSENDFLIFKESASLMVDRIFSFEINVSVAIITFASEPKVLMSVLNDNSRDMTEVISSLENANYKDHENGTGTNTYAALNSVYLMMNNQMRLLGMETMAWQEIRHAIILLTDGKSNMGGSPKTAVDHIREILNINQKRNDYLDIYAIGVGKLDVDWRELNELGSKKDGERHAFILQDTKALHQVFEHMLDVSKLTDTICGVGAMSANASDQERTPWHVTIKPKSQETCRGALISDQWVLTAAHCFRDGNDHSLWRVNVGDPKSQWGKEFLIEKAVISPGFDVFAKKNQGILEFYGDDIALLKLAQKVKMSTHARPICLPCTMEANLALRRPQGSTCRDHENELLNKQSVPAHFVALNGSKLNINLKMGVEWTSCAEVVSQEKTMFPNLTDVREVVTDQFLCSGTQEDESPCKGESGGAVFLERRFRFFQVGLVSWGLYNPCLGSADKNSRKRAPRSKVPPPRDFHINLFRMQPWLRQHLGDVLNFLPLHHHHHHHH

Method for human C2 D269A: (§1) Surface plasmon resonance (SPR, Biacore) was used for all binding affinity analyses. In brief, goat anti-human IgG was directly immobilised onto the carboxymethyl dextran surface of CM5 sensorchips to approximately 12,000 RU using standard NHS/EDC chemistry at pH 5. The immobilised antibody surface was pre-conditioned with ten injections of polyclonal human IgG (Privigen 60 s) prepared at 1 μg/mL. Ligands (anti-C2 mAbs) were captured at the beginning of each cycle as described below. An adjacent spot or flow cell in which only Polyclonal IgG was capture was used as a reference surface. The goat anti-human IgG Fc antibody surface was regenerate in 100 mM H3PO4, injected for 45 seconds at the end of each cycle. Experiments were performed at 37° C. and the flow rate of each experiment was kept constant at 30 μL/min.
(§2) Sensogram data was double-referenced against a reference anti-IgG surface (i.e. minus anti-C2 mAb) and blank buffer injections obtained within each experiment. The binding data was fit to 1:1 (kinetic or steady-state) model using local Rmax and null refraction index (RI=0) when appropriate. Buffers and solutions were filtered (0.22 μm) prior to use.
Method for human C2 K329A: as §1, §2
Method for human C2 N268A: as §1, §2
Method for human C2 N467A: as §1, §2

B1: RF16-214 (antibody, V domains shown)
VH: EVQLLESGGGLVQPGGSLRLSCAASGFTFSWYQMMWVRQAPGKGLEWVSRIYPSGGGTAYADSVKGRFTISRDNSKNTLYLQMNSLRAEDTAVYYCARDAGYGDNWGQGTLVTVSS
VL: QSALTQPPSVSVSPGQTASITCSGDKLGEKYASWYQQKAGQSPVMVIYQDRKRPSGIPERFSGSNSGNTATLTISGTQAMDEADYYCQAWDTRAVVFGGGTKLTVLG
For orientation: Kd means the free concentration of one partner at which half of the binding sites on the other are occupied at equilibrium, for simple one-to-one binding. In the case of B1, the Kd with human C2 N268A turned out to be 60.8 nM; with human C2 D269A, 17.2 nM; with human C2 K329A, 62.6 nM; in the test with human C2 N467A, 77.2 nM.
